Measured values published in patent US20180086841A1 (Merck Sharp & Dohme, published 2018).

What was measured:
Experiment in all cases: flow cytometry on CHO-K1 transfectants;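 further: Anti-hCD27 antibodies tested on transiently transfected CHO-K1 cells bearing hCD27 alanine mutants, 30 min at 4 °C primary incubation, FITC readout excluding debris, dead cells and doublets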
H60A = target: T1, H60A
T1 construct: also called hCD27 H60A
T1 receptor chain: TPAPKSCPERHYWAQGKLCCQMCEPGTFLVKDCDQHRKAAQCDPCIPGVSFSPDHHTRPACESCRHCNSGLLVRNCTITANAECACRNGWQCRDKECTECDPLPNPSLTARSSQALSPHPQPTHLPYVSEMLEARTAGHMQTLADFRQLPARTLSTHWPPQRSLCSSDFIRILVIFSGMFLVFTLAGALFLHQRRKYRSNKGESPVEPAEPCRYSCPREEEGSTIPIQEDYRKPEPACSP
Procedure: (§1) The hCD27 variants that were tested are listed. Amino acids correspond to the UniProt P26842-1 sequence. Amino acids 1-20 constitute the signal peptide. Binding is expressed as the geometric mean of the FITC signal, relative to antibody binding to hCD27, which was set at 100%.
(§2) The ability of several anti-hCD27 antibodies to bind to a series of hCD27 alanine mutants was determined using CHO-K1 cells, transiently transfected pCI-neo empty vector, pCI-neo.hCD27 and several pCI-neo.CD27Ala mutant constructs.
(§3) Detached cells were transferred to 96 wells round-bottomed well plates at approximately 1.2×10⁵ cells/well. After spinning down the cells, discarding the supernatants and re-suspending the cells in the residual volume, the primary antibodies were added and incubated for 30 minutes at 4° C. Cells were washed three times with DPBS/BSA 1%, followed by centrifugation, discarding of the supernatants and re-suspension in the residual volume. […] After washing once, antibody binding was detected using the HTS plate reader (FACS Canto II) and FlowJo software for data analysis. Debris, dead cells and doublets were excluded from the analysis. Binding was expressed as the geometric mean of the FITC signal, relative to antibody binding to hCD27, which was set at 100%.

K17A = target: T2, K17A
T2 construct: also called hCD27 K17A
T2 receptor chain: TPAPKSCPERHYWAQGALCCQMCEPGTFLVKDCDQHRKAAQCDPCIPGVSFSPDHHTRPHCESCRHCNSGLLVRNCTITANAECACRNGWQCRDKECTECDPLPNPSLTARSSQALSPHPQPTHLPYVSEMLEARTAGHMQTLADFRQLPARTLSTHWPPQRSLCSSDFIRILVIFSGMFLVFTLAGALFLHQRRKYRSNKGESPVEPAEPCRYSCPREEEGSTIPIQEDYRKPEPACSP
Procedure: as §1, §2, §3

P8A = target: T3, P8A
T3 construct: also called hCD27 P8A
T3 receptor chain: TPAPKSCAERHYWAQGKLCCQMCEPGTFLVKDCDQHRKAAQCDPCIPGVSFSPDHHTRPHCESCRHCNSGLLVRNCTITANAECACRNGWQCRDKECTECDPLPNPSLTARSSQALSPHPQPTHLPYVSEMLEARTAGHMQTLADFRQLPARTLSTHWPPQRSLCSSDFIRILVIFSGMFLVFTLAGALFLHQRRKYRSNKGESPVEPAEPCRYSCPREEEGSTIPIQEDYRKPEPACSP
Procedure: as §1, §2, §3

I46A = target: T4, I46A
T4 construct: also called hCD27 I46A
T4 receptor chain: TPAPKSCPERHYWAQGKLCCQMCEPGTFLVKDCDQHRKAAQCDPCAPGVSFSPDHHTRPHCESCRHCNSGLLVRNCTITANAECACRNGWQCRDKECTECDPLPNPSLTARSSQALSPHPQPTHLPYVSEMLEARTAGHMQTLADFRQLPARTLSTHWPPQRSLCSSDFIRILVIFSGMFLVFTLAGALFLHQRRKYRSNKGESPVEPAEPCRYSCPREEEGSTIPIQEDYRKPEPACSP
Procedure: as §1, §2, §3

S63A = target: T5, S63A
T5 construct: also called hCD27 S63A
T5 receptor chain: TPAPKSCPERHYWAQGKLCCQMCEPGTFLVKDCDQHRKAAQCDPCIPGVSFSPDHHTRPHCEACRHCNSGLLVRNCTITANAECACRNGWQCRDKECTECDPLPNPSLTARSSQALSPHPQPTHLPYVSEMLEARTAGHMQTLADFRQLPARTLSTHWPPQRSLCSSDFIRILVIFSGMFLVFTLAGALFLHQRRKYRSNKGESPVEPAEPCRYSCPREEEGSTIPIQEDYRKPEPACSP
Procedure: as §1, §2, §3

V49A = target: T6, V49A
T6 construct: also called hCD27 V49A
T6 receptor chain: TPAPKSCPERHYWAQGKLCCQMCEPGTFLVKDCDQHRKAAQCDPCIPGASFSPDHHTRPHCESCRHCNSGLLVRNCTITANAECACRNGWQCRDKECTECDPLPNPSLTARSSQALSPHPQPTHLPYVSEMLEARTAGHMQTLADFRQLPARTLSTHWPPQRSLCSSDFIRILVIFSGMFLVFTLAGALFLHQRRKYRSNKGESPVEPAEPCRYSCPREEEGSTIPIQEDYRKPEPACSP
Procedure: as §1, §2, §3

N88A = target: T7, N88A
T7 construct: also called hCD27 N88A
T7 receptor chain: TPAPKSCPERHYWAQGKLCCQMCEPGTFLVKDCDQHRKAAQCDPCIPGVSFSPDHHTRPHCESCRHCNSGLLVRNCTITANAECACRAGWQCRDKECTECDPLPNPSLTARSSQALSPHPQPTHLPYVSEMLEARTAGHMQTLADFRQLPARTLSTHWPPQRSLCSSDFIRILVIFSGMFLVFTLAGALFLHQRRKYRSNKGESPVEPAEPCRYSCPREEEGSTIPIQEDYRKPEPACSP
Procedure: as §1, §2, §3

W90A = target: T8, W90A
T8 construct: also called hCD27 W90A
T8 receptor chain: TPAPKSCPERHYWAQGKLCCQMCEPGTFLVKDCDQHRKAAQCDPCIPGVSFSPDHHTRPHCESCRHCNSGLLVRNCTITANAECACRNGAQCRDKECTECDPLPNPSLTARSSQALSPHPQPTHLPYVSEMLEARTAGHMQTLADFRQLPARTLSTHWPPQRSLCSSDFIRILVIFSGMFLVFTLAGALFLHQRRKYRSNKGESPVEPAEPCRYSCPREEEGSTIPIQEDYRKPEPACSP
Procedure: as §1, §2, §3

F28A = target: T9, F28A
T9 construct: also called hCD27 F28A
T9 receptor chain: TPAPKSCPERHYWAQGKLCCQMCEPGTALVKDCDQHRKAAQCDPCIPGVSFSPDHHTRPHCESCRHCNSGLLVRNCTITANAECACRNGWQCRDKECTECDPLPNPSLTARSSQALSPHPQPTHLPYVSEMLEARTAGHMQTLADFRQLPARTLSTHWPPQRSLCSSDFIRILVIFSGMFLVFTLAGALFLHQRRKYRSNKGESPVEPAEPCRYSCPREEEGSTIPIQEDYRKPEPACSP
Procedure: as §1, §2, §3

Q15A = target: T10, Q15A
T10 construct: also called hCD27 Q15A
T10 receptor chain: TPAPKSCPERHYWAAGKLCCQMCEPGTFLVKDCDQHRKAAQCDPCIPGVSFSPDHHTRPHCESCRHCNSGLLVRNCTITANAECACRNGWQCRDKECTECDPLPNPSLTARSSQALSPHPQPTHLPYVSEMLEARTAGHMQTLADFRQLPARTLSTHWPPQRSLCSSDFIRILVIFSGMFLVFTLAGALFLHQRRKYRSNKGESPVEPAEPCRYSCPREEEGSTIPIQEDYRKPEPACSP
Procedure: as §1, §2, §3

B1: hCD27.15-6B (antibody, human IgG4 S228P, kappa, V domains shown)
VH: QVQLVQSGAEVKKPGASVKVSCKASGFIIKATYMHWVRQAPGQRLEWMGRIDPANGETKYDPKFQVRVTITADTSASTAYMELSSLRSEDTAVYYCARYAWYFDVWGQGTLVTVSS
VL: DIQMTQSPSSLSASVGDRVTITCRASENIYSFLAWYQQKPGKAPKLLIYHAKTLAEGVTSRFSGSGSGTDFTLTISSLQPEDSATYYCQHYYGSPLTFGQGTRLEIKR
notes: also called hCD27.15 (humanized 6B); humanized hCD27.15 (human IgG4, Clone 6B)
H60A
  binding, WT hCD27 = 100 (GM FITC): 82.6%
K17A
  binding, WT hCD27 = 100 (GM FITC): 120%
P8A
  binding, WT hCD27 = 100 (GM FITC): 63%
I46A
  binding, WT hCD27 = 100 (GM FITC): 81.9%
S63A
  binding, WT hCD27 = 100 (GM FITC): 104%
V49A
  binding, WT hCD27 = 100 (GM FITC): 69%
N88A
  binding, WT hCD27 = 100 (GM FITC): 132%
W90A
  binding, WT hCD27 = 100 (GM FITC): 93.8%
F28A
  binding, WT hCD27 = 100 (GM FITC): 59.4%
Q15A
  binding, WT hCD27 = 100 (GM FITC): 98.6%
